Literature values as cited in article PMC6716120.

Target: hexon (Human adenovirus 5) (UniProt P04133)
Sequence (P04133 2-952): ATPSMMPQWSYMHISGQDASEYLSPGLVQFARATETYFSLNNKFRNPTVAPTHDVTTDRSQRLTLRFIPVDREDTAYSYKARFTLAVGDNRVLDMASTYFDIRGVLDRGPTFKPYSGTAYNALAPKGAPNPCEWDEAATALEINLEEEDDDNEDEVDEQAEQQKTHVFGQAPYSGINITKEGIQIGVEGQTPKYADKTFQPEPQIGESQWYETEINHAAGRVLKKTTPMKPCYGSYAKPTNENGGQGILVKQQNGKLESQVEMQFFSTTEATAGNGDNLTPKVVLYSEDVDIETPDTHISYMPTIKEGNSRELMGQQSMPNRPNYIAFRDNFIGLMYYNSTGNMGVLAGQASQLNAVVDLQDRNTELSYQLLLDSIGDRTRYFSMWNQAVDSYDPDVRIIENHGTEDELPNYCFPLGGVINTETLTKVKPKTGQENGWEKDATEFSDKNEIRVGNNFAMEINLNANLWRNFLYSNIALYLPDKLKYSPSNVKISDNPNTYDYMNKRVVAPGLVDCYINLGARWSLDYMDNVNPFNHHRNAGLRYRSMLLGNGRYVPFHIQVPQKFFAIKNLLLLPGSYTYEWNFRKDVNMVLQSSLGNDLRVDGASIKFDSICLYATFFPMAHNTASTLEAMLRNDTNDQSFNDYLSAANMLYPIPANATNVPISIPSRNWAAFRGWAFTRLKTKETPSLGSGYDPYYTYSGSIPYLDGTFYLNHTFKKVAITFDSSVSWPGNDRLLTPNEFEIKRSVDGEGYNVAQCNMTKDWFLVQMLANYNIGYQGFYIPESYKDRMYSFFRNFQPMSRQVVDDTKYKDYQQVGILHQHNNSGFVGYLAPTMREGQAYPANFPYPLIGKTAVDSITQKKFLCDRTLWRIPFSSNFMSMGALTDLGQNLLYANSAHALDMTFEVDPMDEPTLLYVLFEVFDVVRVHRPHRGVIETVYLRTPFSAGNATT

Chain of coagulation factor X (P00742 41-488): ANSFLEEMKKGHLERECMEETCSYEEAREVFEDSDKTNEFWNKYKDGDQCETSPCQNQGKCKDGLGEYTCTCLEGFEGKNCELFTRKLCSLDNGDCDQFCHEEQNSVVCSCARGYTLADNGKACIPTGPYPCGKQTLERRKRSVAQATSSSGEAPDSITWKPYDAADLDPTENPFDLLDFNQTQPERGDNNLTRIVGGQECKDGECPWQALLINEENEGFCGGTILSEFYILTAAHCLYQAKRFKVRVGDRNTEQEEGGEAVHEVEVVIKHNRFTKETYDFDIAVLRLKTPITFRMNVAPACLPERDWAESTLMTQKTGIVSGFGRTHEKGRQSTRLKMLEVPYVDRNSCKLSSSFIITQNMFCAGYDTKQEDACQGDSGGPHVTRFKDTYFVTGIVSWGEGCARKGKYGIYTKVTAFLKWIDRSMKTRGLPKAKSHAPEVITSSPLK

For “coagulation factor X (from UniProt P00742)”, the Kd is given as 2 nM.
